# PMC12373829 (Nature Communications, 2025)
# T1: acarbose-preferred glucosidase (Apg) (Klebsiella grimontii, UniProt A0ABD7ANA7, DEL138-152)
# T1 sequence (A0ABD7ANA7 1-605 DEL138-152): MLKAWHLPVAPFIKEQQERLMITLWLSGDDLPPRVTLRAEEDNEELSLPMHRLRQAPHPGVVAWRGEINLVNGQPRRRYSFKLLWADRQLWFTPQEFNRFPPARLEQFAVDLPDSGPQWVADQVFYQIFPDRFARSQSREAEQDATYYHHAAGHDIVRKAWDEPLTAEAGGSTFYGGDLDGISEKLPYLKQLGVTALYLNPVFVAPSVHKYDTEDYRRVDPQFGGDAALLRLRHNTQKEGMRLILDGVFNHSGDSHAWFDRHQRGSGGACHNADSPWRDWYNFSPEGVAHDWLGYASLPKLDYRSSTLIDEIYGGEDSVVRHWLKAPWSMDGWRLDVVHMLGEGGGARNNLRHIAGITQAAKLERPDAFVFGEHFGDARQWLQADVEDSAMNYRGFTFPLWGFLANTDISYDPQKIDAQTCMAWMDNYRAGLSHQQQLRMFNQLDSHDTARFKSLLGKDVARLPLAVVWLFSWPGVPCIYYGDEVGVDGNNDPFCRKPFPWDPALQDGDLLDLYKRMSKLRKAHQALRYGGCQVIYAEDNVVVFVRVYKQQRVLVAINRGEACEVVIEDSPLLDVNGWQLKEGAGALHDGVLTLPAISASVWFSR
# What was measured:
# [1] = target: T1, acarbose-preferred glucosidase (Apg); assay: X-ray crystal structure; format: binding
# [2] = target: acarbose-preferred glucosidase (Apg), wild type (K. grimontii TD1); assay: SEC
# [3] = substrate: C[C@H]1O[C@H](O[C@H]2[C@H](O)[C@@H](O)[C@@H](O)O[C@@H]2CO)[C@H](O)[C@@H](O)[C@@H]1N[C@H]1C=C(CO)[C@@H](O)[C@H](O)[C@H]1O; assay: purified protein; details: active site
# [4] = substrate: C[C@H]1O[C@H](O[C@H]2[C@H](O)[C@@H](O)[C@@H](O[C@H]3[C@H](O)[C@@H](O)C(O)O[C@@H]3CO)O[C@@H]2CO)[C@H](O)[C@@H](O)[C@@H]1N[C@H]1C=C(CO)[C@@H](O)[C@H](O)[C@H]1O; assay: purified protein; details: active site; D448 nucleophile, E373/R334 proton donor
molecule,measurement,setting,value
OC[C@H]1O[C@H](O)[C@H](O)[C@@H](O)[C@@H]1O [glucose],X-ray crystal structure (co-crystallization),[1],Crystals of the glucose complex were obtained by co-crystallization of the ∆loop A mutant
"acarbose-preferred glucosidase (Apg), wild type (enzyme)",stoichiometry N,[2],2
acarbose-preferred glucosidase (Apg) (Klebsiella grimontii) (protein) MLKAWHLPVAPFIKEQQERLMITLWLSGDDLPPRVTLRAEEDNEELSLPMHRLRQAPHPGVVAWRGEINLVNGQPRRRYSFKLLWADRQLWFTPQEFNRFPPARLEQFAVDLPDSGPQWVADQVFYQIFPDRFARSQSREAEQDATYYHHAAGHDIVRKAWDEPLTAEAGGSTFYGGDLDGISEKLPYLKQLGVTALYLNPVFVAPSVHKYDTEDYRRVDPQFGGDAALLRLRHNTQKEGMRLILDGVFNHSGDSHAWFDRHQRGSGGACHNADSPWRDWYNFSPEGVAHDWLGYASLPKLDYRSSTLIDEIYGGEDSVVRHWLKAPWSMDGWRLDVVHMLGEGGGARNNLRHIAGITQAAKLERPDAFVFGEHFGDARQWLQADVEDSAMNYRGFTFPLWGFLANTDISYDPQKIDAQTCMAWMDNYRAGLSHQQQLRMFNQLDSHDTARFKSLLGKDVARLPLAVVWLFSWPGVPCIYYGDEVGVDGNNDPFCRKPFPWDPALQDGDLLDLYKRMSKLRKAHQALRYGGCQVIYAEDNVVVFVRVYKQQRVLVAINRGEACEVVIEDSPLLDVNGWQLKEGAGALHDGVLTLPAISASVWFSR,Km,[3],6.642 ± 0.371 µM
same,Km,[4],2.600 ± 0.652 µM
